From patent US20170349647A1 (PANASONIC INTELLECTUAL PROPERTY MANAGEMENT, published 2017)

Molecular target: recombinant nucleoprotein (NP) protein derived from influenza virus H1N1 to which a Flag tag was fus (influenza virus H1N1)
Sequence (P03466 whole entry): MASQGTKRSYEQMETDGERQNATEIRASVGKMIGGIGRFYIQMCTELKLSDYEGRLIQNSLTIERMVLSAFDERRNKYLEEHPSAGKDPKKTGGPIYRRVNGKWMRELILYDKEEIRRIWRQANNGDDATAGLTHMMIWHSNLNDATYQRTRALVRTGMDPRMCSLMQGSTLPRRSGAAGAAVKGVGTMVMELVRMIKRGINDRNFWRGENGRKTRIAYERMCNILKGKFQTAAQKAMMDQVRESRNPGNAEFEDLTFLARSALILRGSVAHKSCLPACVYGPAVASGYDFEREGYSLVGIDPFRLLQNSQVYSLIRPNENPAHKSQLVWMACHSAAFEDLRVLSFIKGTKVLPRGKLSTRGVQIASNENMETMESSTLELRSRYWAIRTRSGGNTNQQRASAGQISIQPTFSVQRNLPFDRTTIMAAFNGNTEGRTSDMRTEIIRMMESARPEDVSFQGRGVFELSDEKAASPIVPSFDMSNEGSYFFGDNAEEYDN

B1: VHH antibody consisting of the amino acid sequence represented by SEQ ID NO: 08 (VHH)
VHH: QVQLVESGGGLVQAGGSLRLSCAASRTIFNPNVMGWYRQAPGKQRELVADISLSGSTNYADSVKGRFTISRDNAKNTMYLQMNSLKPEDTAVYYCNTNAISGAPGRYWGQGTQVTVSS
In the case of B1, the Kd is reported as 0.236 nM.
